Two molecules from patent US20220380728A1 (EAST CAROLINA UNIVERSITY, published 2022) can be followed below.

In assay [1] the target is TGF-β produced by cells in the culture (mouse) (UniProt Q61315). The assay is described as follows: cell-based or functional assay.
Assay [2] concerns the target T1, murine CD25 (IL-2 receptor alpha chain) on mouse T cells (mouse, UniProt P01590 22-268).
T1 construct: whole, on cells; Endogenous CD25 on cultured mouse Tregs and Tcons; also called IL-2Rα; surface CD25
T1 sequence (looked up): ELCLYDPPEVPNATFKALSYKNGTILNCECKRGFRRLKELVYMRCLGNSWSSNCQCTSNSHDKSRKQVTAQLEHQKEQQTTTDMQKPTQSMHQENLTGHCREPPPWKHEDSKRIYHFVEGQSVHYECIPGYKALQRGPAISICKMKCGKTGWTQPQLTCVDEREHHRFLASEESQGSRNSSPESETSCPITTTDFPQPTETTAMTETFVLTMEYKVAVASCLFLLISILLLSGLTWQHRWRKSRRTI
Put plainly: flow cytometry on 2D2-FIG Tregs; loss of APC-conjugated PC61 staining. A general note: A flow cytometer gives signals particle by particle.

Sequence of TGF-β produced by cells in the culture (mouse) (Q61315 whole entry): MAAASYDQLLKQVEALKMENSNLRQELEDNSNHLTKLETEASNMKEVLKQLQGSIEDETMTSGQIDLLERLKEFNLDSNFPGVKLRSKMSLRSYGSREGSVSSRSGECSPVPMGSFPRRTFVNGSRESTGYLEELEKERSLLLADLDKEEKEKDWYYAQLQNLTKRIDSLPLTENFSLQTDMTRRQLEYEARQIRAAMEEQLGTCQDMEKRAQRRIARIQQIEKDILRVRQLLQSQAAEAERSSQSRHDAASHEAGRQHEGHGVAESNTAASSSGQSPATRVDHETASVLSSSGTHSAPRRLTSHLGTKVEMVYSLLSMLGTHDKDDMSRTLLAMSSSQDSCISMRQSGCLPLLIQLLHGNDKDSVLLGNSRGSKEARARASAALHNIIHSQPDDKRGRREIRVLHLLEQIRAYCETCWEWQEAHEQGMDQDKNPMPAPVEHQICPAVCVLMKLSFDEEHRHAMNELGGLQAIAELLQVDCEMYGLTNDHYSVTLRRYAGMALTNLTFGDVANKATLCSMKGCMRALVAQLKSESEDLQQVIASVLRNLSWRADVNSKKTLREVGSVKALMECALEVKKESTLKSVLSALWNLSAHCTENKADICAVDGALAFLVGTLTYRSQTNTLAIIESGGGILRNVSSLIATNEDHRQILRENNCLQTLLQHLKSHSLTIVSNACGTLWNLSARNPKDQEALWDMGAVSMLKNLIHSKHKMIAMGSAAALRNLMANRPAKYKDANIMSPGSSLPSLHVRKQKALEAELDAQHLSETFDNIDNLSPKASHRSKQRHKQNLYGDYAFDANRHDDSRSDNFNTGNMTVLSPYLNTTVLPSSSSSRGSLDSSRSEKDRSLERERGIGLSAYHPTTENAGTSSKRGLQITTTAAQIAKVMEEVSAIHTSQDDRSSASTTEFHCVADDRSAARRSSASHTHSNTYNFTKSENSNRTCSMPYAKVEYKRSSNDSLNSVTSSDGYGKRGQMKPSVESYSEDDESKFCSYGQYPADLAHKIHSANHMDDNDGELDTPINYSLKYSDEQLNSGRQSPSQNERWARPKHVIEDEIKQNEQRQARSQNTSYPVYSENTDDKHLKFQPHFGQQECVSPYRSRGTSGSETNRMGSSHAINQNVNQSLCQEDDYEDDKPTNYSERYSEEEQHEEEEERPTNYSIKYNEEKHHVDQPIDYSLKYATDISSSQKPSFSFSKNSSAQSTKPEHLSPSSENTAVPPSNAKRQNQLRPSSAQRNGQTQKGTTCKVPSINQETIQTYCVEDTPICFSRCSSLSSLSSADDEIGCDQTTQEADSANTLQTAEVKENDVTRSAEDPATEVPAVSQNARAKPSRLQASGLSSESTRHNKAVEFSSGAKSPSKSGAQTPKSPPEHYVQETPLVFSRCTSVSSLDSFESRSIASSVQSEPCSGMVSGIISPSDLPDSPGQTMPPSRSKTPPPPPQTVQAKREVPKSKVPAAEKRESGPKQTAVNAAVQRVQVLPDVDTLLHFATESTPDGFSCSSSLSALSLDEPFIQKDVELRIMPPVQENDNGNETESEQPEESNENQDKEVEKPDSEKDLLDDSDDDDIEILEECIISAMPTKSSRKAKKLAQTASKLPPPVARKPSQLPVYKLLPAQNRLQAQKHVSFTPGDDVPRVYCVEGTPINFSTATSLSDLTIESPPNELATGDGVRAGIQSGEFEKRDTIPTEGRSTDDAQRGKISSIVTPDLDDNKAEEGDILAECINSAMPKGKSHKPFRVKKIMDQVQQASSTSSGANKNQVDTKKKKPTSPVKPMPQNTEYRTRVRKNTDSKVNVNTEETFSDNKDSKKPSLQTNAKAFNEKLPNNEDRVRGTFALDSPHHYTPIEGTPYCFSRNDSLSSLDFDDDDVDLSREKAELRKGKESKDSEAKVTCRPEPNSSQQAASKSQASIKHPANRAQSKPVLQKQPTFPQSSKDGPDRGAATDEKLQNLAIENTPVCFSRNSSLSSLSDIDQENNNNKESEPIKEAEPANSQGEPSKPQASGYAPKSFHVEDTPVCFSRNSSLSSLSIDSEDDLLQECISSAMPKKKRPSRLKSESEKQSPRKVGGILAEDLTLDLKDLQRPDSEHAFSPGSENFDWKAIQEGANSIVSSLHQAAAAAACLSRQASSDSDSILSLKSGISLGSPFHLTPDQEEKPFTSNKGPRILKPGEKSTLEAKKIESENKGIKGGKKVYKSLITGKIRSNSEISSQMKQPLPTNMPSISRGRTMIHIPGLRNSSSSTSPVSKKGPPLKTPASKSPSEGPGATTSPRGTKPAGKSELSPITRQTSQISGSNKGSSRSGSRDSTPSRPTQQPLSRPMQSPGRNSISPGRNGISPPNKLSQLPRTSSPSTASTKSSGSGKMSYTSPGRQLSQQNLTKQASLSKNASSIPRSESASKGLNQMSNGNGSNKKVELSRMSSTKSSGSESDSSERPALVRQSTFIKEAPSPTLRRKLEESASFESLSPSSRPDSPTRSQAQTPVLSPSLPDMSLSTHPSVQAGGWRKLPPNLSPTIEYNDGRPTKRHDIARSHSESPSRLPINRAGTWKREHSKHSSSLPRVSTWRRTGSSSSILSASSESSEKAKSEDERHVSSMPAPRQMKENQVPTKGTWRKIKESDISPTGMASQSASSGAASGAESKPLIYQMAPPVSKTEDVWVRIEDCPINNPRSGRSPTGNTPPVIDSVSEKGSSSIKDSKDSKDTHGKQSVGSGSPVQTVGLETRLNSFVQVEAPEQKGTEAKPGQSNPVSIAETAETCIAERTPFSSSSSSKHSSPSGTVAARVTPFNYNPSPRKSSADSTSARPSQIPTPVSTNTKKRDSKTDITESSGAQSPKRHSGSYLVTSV

For “1D11.16.8 anti-mouse-TGF-β1/2/3 monoclonal antibody (mouse IgG1)”, the FOXP3+ Treg percentages during secondary activation (1D11 at 50 µg/ml) in assay [1] is less than 50%.

B1: PC61 anti-CD25 monoclonal antibody (PC61-5.3 hybridoma, rat IgG1, lambda) (antibody, V domains shown)
VH: QVQLQQSGAELVRPGTSVKLSCKVSGDTITAYYIHFVKQRPGQGLEWIGRIDPEDDSTEYAEKFKNKATITANTSSNTAHLKYSRLTSEDTATYFCTTDNMGATEFVYWGQGTLVTVSS
VL: QVVLTQPKSVSASLESTVKLSCKLNSGNIGSYYMHWYQQREGRSPTNLIYRDDKRPDGAPDRFSGSIDISSNSAFLTINNVQTEDEAMYFCHSYDGRMYIFGGGTKLTVLG
notes: also called PC61 mAb; anti-CD25 PC61 mAb
Turning to B1, the binding result in assay [2] is on record as “binds”.
